According to article PMC4378652 (Molecular and cellular endocrinology, 2015):
Values belong to the binder of their own block, whether it stands above or below them.

Target: T1, rat FSH receptor (rat testis homogenate) (rat (endogenous in rat testis), UniProt P20395 18-692)
T1 sequence (looked up): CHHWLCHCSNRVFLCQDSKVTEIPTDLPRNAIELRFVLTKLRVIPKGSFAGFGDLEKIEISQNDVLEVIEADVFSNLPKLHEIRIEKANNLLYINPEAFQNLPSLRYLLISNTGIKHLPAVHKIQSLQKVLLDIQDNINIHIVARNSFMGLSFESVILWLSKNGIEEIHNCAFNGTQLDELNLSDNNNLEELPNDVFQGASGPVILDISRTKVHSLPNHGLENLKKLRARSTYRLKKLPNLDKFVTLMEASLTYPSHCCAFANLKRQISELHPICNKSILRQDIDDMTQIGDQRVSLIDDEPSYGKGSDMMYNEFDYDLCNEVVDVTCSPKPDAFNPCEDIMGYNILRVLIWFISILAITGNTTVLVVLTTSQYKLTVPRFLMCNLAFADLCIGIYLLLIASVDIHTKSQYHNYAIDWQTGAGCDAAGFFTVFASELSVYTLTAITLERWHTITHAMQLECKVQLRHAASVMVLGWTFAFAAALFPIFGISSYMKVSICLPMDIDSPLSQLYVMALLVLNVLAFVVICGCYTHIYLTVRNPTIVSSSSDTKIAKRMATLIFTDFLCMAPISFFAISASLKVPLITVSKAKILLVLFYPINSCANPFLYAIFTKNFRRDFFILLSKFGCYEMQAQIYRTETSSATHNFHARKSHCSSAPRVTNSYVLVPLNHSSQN
Assay: radioligand binding

ID50: 114 ng
B1: Pituitary hFSH^24/21 (AFP7298A) (ligand)
chain 1: not shown
chain 2: NSCELTNITIAIEKEECRFCISINTTWCAGYCYTRDLVYKDPARPKIQKTCTFKELVYETVRVPGCAHHADSLYTYPVATQCHCGKCDSDSTDCTVRGLGPSYCSFGEMKE
modifications: N-glycosylated (positions not given) | mixture of FSHβ^24 (fully glycosylated) and FSHβ^21, FSHβ^24 the more abundant

ID50: 253 ng
B2: Pituitary hFSH^24 (ligand)
chain 1: not shown
chain 2: B1 chain 2
modifications: N-glycosylated (two N-glycans, positions not given) | fully glycosylated FSHβ^24 (N-glycans at Asn7 and Asn24)
